Assay results taken from publication PMC6468243, “Mechanistic characterization of the DEAD-box RNA helicase Ded1 from yeast as revealed by a novel technique using single-molecule magnetic tweezers”.

Target: Ded1-His6 (Saccharomyces cerevisiae? (paper says …, UniProt P06634 1-604))
Experiment: competition (magnetic tweezers displacement assay); 1 mM ATP; 10 nM Ded1; against 200 nM 5'ss-11 bp RNA; effective competitor; Magnetic tweezers, Fhold 7 pN, 10 nM Ded1, 1 mM ATP, 200 nM 5'ss-11 bp RNA; buffer, salt, pH and temperature not in the material. Table 1 and Figures 4-6 (duplex displacement/unwinding kinetics) left out as enzyme activity without a direct binding read-out
Conditions: protein: recombinant; tags: His6 (pET22b); single strand

Ded1-His6 (Saccharomyces cerevisiae?, sequence (P06634 whole entry): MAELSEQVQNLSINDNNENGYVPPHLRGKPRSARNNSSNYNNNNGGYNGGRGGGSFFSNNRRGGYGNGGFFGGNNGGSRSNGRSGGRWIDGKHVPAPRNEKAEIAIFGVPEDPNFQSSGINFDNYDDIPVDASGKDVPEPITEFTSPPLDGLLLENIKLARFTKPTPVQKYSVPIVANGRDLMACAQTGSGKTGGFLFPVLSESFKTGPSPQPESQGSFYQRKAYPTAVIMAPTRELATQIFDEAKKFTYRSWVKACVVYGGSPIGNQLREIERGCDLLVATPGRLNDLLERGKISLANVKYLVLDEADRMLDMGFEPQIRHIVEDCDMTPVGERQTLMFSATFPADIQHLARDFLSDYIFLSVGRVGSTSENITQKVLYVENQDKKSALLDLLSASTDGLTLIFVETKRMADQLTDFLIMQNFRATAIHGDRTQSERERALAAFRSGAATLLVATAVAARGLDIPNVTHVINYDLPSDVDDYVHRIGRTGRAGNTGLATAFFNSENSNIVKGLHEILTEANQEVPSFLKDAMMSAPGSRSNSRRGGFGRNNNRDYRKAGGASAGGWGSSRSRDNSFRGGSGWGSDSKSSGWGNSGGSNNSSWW

B1: ssRNA01 (RNA01) (ssRNA)
RNA: UCAUACUUUUCUUUUCUUUUCCAUC
binding result: binds
